Data published in patent publication US20190016771A1 (Hoffmann-La Roche, published 2019).

Legend:
[1] = target: T1, human fibroblast activation protein (FAP) on the cell surface (human, UniProt Q12884 1-760); assay: flow cytometry on WM-266-4 cells, FITC anti-human IgG F(ab')2 detection
T1 construct: also called huFAP; NIH/3T3-huFAP clone 39 cells
T1 sequence: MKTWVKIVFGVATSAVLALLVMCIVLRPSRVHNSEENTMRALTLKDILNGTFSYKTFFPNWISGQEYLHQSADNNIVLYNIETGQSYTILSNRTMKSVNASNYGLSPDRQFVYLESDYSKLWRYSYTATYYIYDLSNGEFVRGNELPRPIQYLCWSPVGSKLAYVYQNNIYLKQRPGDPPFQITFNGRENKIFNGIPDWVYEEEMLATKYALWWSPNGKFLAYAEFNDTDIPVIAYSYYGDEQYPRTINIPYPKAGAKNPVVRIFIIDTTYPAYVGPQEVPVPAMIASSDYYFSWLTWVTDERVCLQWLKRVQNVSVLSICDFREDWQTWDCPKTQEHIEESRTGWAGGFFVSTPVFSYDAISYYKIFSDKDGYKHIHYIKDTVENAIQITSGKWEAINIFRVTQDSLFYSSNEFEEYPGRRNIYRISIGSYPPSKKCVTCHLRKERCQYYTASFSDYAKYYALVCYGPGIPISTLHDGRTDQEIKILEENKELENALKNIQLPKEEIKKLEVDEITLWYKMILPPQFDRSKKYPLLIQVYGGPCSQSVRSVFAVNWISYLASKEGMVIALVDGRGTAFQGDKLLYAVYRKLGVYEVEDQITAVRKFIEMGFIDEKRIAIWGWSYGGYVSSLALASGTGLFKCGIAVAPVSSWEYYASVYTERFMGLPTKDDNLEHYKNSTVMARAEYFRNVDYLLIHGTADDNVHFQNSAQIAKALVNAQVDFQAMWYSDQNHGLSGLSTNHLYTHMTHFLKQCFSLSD
Experimental: Cells were stained for 120 minutes at 4° C. in the dark in 50 μL/well 4° C. cold FACS buffer (DPBS (Gibco by Life Technologies, Cat. No. 14190 326) w/ BSA (0.1% v/w, Sigma-Aldrich, Cat. No. A9418) containing titrated huCMP trimeric OX40 ligand-containing antigen binding molecules. After three times washing with excess FACS buffer, cells were stained for 60 minutes at 4° C. in the dark in 25 μL/well 4° C. cold FACS buffer containing Fluorescein isothiocyanate (FITC)-conjugated AffiniPure anti-human IgG F(ab′)₂-fragment-specific goat IgG F(ab′)₂ fragment (Jackson ImmunoResearch, Cat.-No. 109-096-097).
Plates were finally resuspended in 90 μL/well FACS-buffer containing 0.2 μg/mL DAPI (Santa Cruz Biotec, Cat. No. Sc-3598) and acquired the same day using 5-laser LSR-Fortessa (BD Bioscience with DIVA software).

[2] = target: T2, human OX40 (CD134) on the cell surface (human, UniProt P43489 29-277); assay: flow cytometry on activated human CD4+ T cells (OX40 positive); activated OX40 positive CD4+ T cells
T2 construct: whole, on cells; also called hOx40
T2 sequence (looked up): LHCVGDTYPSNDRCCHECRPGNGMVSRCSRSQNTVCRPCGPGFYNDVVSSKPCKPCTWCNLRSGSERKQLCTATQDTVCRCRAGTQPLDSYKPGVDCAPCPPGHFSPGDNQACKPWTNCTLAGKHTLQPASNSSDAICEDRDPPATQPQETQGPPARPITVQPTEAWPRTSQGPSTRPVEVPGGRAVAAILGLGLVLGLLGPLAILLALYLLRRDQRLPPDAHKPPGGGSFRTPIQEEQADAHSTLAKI
Experimental: (§1) PBMCs were used directly after isolation (binding on resting human PBMCs) or they were stimulated to receive a strong human Ox40 expression on the cell surface of T cells (binding on activated human PBMCs). Therefore naïve PBMCs were cultured for three days in T cell medium supplied with 200 U/mL Proleukin (Novartis) and […] PHA-L (Sigma-Aldrich, L2769-10) in 6-well tissue culture plate at 37° C. and 5% CO₂.
(§2) Cells were stained for 120 minutes at 4° C. in the dark in 50 μL/well 4° C. cold FACS buffer containing titrated anti-Ox40 antibody constructs. After three times washing with excess FACS buffer, cells were stained for 1 h at 4° C. in the dark in 25 μL/well 4° C. cold FACS buffer containing a mixture of fluorescently labeled anti-human CD4 (clone OKT4, mouse IgG1 k, BioLegend, Cat.-No. 317428), anti-human CD8 (clone RPa-T8, mouse IgG1k, BD Pharmingen, Cat.-No. 555368) and Fluorescein isothiocyanate (FITC)-conjugated AffiniPure anti-human IgG F(ab′)2-fragment-specific goat IgG F(ab′)₂ fragment (Jackson ImmunoResearch, Cat.-No. 109-096-097). Plates were finally resuspended in 90 μL/well FACS-buffer containing 0.2 μg/mL DAPI (Santa Cruz Biotec, Cat. No. Sc-3598) and acquired the same day using 5-laser LSR-Fortessa (BD Bioscience with DIVA software).

[3] = target: T2, human OX40 (CD134) on the cell surface; assay: flow cytometry on activated human CD8+ T cells (OX40 positive); activated OX40 positive CD8+ T cells
Experimental: as §1, §2

B1: FAP(28H1)-targeted human CMP trimeric OX40L-containing antigen binding molecule (other)
chain: EVQLLESGGGLVQPGGSLRLSCAASGFTFSSHAMSWVRQAPGKGLEWVSAIWASGEQYYADSVKGRFTISRDNSKNTLYLQMNSLRAEDTAVYYCAKGWLGNFDYWGQGTLVTVSSASTKGPSVFPLAPSSKSTSGGTAALGCLVKDYFPEPVTVSWNSGALTSGVHTFPAVLQSSGLYSLSSVVTVPSSSLGTQTYICNVNHKPSNTKVDKKVEPKSCDGGGGSGGGGSEEDPCACESLVKFQAKVEGLLQALTRKLEAVSKRLAILENTVVSGGGGSGGGGSGGGGSGGGGSQVSHRYPRIQSIKVQFTEYKKEKGFILTSQKEDEIMKVQDNSVIINCDGFYLISLKGYFSQEVDISLHYQKDEEPLFQLKKVRSVNSLMVASLTYKDKVYLNVTTDNTSLDDFHVNGGELILIHQNPGEFCVL
light: EIVLTQSPGTLSLSPGERATLSCRASQSVSRSYLAWYQQKPGQAPRLLIIGASTRATGIPDRFSGSGSGTDFTLTISRLEPEDFAVYYCQQGQVIPPTFGQGTKVEIKRTVAAPSVFIFPPSDEQLKSGTASVVCLLNNFYPREAKVQWKVDNALQSGNSQESVTEQDSKDSTYSLSSTLTLSKADYEKHKVYACEVTHQGLSSPVTKSFNRGEC
notes: also called trimeric FAP-huCMP-OX40L
B1 was tested. Which EC50 [1] did it give?
The EC50 was 17.3 nM.

And the EC50 [2]?
The EC50 was 10.2 nM.

What about the EC50 [3] of the same binder?
The EC50 was 3 nM.
